Measurements reported in IntAct's records for PubMed 20818436.

B1: Zinc finger protein GLI1 (Homo sapiens), P08151 (parent)
chain: MFNSMTPPPISSYGEPCCLRPLPSQGAPSVGTEGLSGPPFCHQANLMSGPHSYGPARETNSCTEGPLFSSPRSAVKLTKKRALSISPLSDASLDLQTVIRTSPSSLVAFINSRCTSPGGSYGHLSIGTMSPSLGFPAQMNHQKGPSPSFGVQPCGPHDSARGGMIPHPQSRGPFPTCQLKSELDMLVGKCREEPLEGDMSSPNSTGIQDPLLGMLDGREDLEREEKREPESVYETDCRWDGCSQEFDSQEQLVHHINSEHIHGERKEFVCHWGGCSRELRPFKAQYMLVVHMRRHTGEKPHKCTFEGCRKSYSRLENLKTHLRSHTGEKPYMCEHEGCSKAFSNASDRAKHQNRTHSNEKPYVCKLPGCTKRYTDPSSLRKHVKTVHGPDAHVTKRHRGDGPLPRAPSISTVEPKREREGGPIREESRLTVPEGAMKPQPSPGAQSSCSSDHSPAGSAANTDSGVEMTGNAGGSTEDLSSLDEGPCIAGTGLSTLRRLENLRLDQLHQLRPIGTRGLKLPSLSHTGTTVSRRVGPPVSLERRSSSSSSISSAYTVSRRSSLASPFPPGSPPENGASSLPGLMPAQHYLLRARYASARGGGTSPTAASSLDRIGGLPMPPWRSRAEYPGYNPNAGVTRRASDPAQAADRPAPARVQRFKSLGCVHTPPTVAGGGQNFDPYLPTSVYSPQPPSITENAAMDARGLQEEPEVGTSMVGSGLNPYMDFPPTDTLGYGGPEGAAAEPYGARGPGSLPLGPGPPTNYGPNPCPQQASYPDPTQETWGEFPSHSGLYPGPKALGGTYSQCPRLEHYGQVQVKPEQGCPVGSDSTGLAPCLNAHPSEGPPHPQPLFSHYPQPSPPQYLQSGPYTQPPPDYLPSEPRPCLDFDSPTHSTGQLKAQLVCNYVQSQQELLWEGGGREDAPAQEPSYQSPKFLGGSQVSPSRAKAPVNTYGPGFGPNLPNHKSGSYPTPSPCHENFVVGANRASHRAAAPPRLLPPLPTCYGPLKVGGTNPSCGHPEVGRLGGGPALYPPPEGQVCNPLDSLDLDNTQLDFVAILDEPQGLSPPPSHDQRGSSGHTPPPSGPPNMAVGNMSVLLRSLPGETEFLNSSA

Variants of: B1
Conditions: with itch_human ITCH

Variant	effect of a mutation on the interaction
Y859F;Y872F;S1060A	disrupting interaction
